Test results published in patent US20220177587A1, “METHODS AND USES OF VARIANT CD80 FUSION PROTEINS AND RELATED CONSTRUCTS” (Alpine Immune Sciences, Inc., priority 2018, published 2022).
Numbering of substitutions follows the chain as printed. Numbers in names are those of the source.

How the values were obtained:
CD28 [1] = molecular target: T1, CD28 (Homo sapiens, UniProt P10747); experiment: Jurkat/IL2 + CHO/OKT3 +/- PD-L1 reporter assay: PD-L1-dependent CD28 costimulation; format: cell-based; design: host or cells: Jurkat cells expressing an IL-2-luciferase reporter; conditions: Jurkat/IL2 + CHO/OKT3/PD-L1
Summary of the method: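 Jurkat reporter cells (100,000/well) preincubated 15 min at room temperature with test protein, then cocultured 5 h at 37 °C with CHO aAPCs bearing anti-CD3 scFv (OKT3) with or without PD-L1. Luciferase luminescence (RLU) read after lysis-substrate addition.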

CD28 [2] = molecular target: T1, CD28; experiment: Flow binding to Jurkat/IL2 reporter cells (CD28); design: host or cells: Jurkat cells expressing an IL-2-luciferase reporter
Procedure: Binding of selected immunomodulatory fusion proteins to cognate binding partners was assessed. […] Cells were sorted in a Bio-Rad S3 Cell Sorter (Bio-Rad Corp., USA) to >98% purity. Jurkat/IL2 reporter cells, which endogenously express CD28, were used to detect binding to CD28.
For staining and analysis by flow cytometry, 100,000 cells of appropriate transfected cells were plated in 96-well round bottom plates. Cells were spun down and resuspended in staining buffer (phosphate buffered saline (PBS), 1% bovine serum albumin (BSA), and 0.1% sodium azide) for 20 minutes to block non-specific binding. […] Primary staining was performed on ice for 45 minutes, before washing cells in staining buffer twice. Phycoerythrin (PE)-conjugated anti-human Fc (Jackson ImmunoResearch, USA) was diluted 1:150, added to cells and incubated another 30 minutes on ice. Cells were then washed twice with 150 μL/well stain buffer, fixed in 2% formaldehyde/PBS, and analyzed on Intellicyt flow cytometer (Intellicyt Corp., USA). PE Mean Fluorescence Intensity (MFI) was calculated for each cell type with FlowJo Version 10 software (FlowJo LLC, USA).
Binding assays were carried out to assess the specificity and affinity of multivalent proteins to cell-expressed CTLA-4, CD28, and PD-L1 counter structures.
The EC50 for binding also was determined.

huPD-L1 = huPD-L1 (Homo sapiens, UniProt Q9NZQ7); experiment: Flow binding to CHO cells stably expressing PD-L1; design: huCTLA4 and huPD-L1, full-length mammalian surface expression constructs were generated; expressed in transfected cells; host or cells: CHO cells, lentiviral transduction, sorted to >98% purity; conditions: for PD-L1 MFI at 33.3 nM: CHO cells stably expressing PD-L1
Summary of the method: (§1)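 Flow cytometry on transfected CHO cells or CD28+ Jurkat/IL2 reporter cells, blocked 20 min in PBS/1% BSA/0.1% azide. Fusion protein 45 min on ice; PE anti-human Fc 1:150, 30 min on ice; fixed in 2% formaldehyde. Read-out PE MFI, EC50 calculated.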

huCTLA4 = huCTLA4 (Homo sapiens, UniProt P16410); experiment: Flow binding to CHO cells stably expressing CTLA4; design: huCTLA4 and huPD-L1, full-length mammalian surface expression constructs were generated; expressed in transfected cells; host or cells: CHO cells, lentiviral transduction, sorted to >98% purity; conditions: for CTLA4 MFI at 33.3 nM: CHO cells stably expressing CTLA4
Summary of the method: as §1

[3] = Table E11, Jurkats (CD28), 33.3 nM
[4] = Table E23, CD80 IgV-Fc (inert) at 33.3 nM, Jurkat (CD28)
[5] = Table E23, CD80 IgV-Fc (inert) at 33.3 nM
[6] = Table E4, 33.3 nM, Jurkat cells (CD28)
[7] = Table E4, MFI ratio to WT CD80 ECD-Fc (R&D) at 33.3 nM
[8] = Table E4, 33.3 nM variant CD80 IgV-Fc
[9] = Table E4, binding to PD-L1 compared to binding to CD28
[10] = Table E11, 33.3 nM, listed as WT CD80 ECD-Fc = 1.0
[11] = Table E19, Jurkats (CD28), 33.3 nM

huPD-L1, sequence (Q9NZQ7 19-290): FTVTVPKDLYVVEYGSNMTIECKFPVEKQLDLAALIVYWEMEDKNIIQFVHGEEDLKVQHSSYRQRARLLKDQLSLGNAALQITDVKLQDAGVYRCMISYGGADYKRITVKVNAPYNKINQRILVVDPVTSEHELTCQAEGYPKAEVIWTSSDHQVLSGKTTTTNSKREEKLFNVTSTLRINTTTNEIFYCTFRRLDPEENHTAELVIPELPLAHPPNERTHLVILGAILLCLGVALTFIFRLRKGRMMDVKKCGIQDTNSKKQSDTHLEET
huCTLA4, sequence (P16410 36-223): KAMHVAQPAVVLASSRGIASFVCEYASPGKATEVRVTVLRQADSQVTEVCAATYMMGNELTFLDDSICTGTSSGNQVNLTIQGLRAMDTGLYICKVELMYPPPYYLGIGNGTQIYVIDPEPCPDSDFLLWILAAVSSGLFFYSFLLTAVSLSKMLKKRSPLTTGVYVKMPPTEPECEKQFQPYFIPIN

B1: H18Y/E35D/V68M/L85M/R94Q (protein, UniProt P33681 35-288, looked up, variant H18Y E35D V68M L85M R94Q)
T-lymphocyte activation …: VIHVTKEVKEVATLSCGYNVSVEELAQTRIYWQKDKKMVLTMMSGDMNIWPEYKNRTIFDITNNLSIMILALRPSDEGTYECVVMKYEKDAFKQEHLAEVTLSVKADFPTPSISDFEIPTSNIRRIICSTSGGFPEPHLSWLENGEELNAINTTVSQDPETELYAVSSKLDFNMTTNHSFMCLIKYGHLRVNQTFNWNTTKQEHFPDNLLPSWAITLISVNGIFVICCLTYCFAPRCRERRRNERLRRESVRPV
Relative Luciferase Units (RLU), CD80 Cone 5.0 nM (CD28 [1]; Table E13, 5.0 nM): 195 RLU | Relative Luciferase Units (RLU), CD80 Cone 5.0 nM (CD28 [1]; Table E17, consensus variants, 5.0 nM): 2215 RLU | CD28 MFI at 33.3 nM (CD28 [2]; [3]): 14 | CD28 MFI at 33.3 nM (CD28 [2]; Table E16, consensus variants, Jurkats (CD28), 33.3 nM): 962 | PD-L1 MFI at 33.3 nM (huPD-L1; Table E11, 33.3 nM): 14410 | PD-L1 MFI at 33.3 nM (huPD-L1; Table E16, consensus variants, 33.3 nM): 9283

B2: H18Y/A26P/E35D/M47V/V68M/A71G (protein, UniProt P33681 35-288, looked up, variant H18Y A26P E35D M47V V68M A71G)
T-lymphocyte activation …: B1 T-lymphocyte activation … with A26P, M47V, A71G, M85L, Q94R
Relative Luciferase Units (RLU), CD80 Conc 5.0 nM (CD28 [1]; Table E24, 5.0 nM): 821 RLU | CD28 MFI at 33.3 nM (CD28 [2]; [4]): 6911 | PD-L1 MFI at 33.3 nM (huPD-L1; [5]): 51521

B3: E35D/D46V/M47L/V68M/L85Q/E88D GS(G4S)3 (protein, UniProt P33681 35-288, looked up, variant E35D D46V M47L V68M L85Q E88D)
T-lymphocyte activation …: B1 T-lymphocyte activation … with Y18H, D46V, M47L, M85Q, E88D, Q94R
modifications: GS(G4S)3 linker
Relative Luciferase Units (RLU), CD80 Conc 5.0 nM (CD28 [1]; Table E26, linker variants, 5.0 nM): 1592 RLU | CD28 MFI at 33.3 nM (CD28 [2]; Table E25, linker variants, 33.3 nM, Jurkats (CD28)): 267 | PD-L1 MFI at 33.3 nM (huPD-L1; Table E25, linker variants, 33.3 nM): 22596

B4: H18V/E35D/M47V/V68M/A71G/D90G (protein, UniProt P33681 35-288, looked up, variant H18V E35D M47V V68M A71G D90G)
T-lymphocyte activation …: B1 T-lymphocyte activation … with Y18V, M47V, A71G, M85L, D90G, Q94R
Relative Luciferase Units (RLU), CD80 Conc 5.0 nM (CD28 [1]; Table E24, 5.0 nM): 854 RLU | CD28 MFI at 33.3 nM (CD28 [2]; [4]): 2115 | PD-L1 MFI at 33.3 nM (huPD-L1; [5]): 43588

B5: E35D/M47LN68M/A71G/L85Q/D90G (protein, UniProt P33681 35-288, looked up, variant E35D M47L V68M A71G L85Q D90G)
T-lymphocyte activation …: B1 T-lymphocyte activation … with Y18H, M47L, A71G, M85Q, D90G, Q94R
CD28 MFI at 33.3 nM (CD28 [2]; Table E14, Jurkats (CD28), 33.3 nM): 1400 | CTLA4 MFI at 33.3 nM (huCTLA4; Table E14, 33.3 nM): 10332

B6: H18Y/E35D/M47V/V68M/A71G (protein, UniProt P33681 35-288, looked up, variant H18Y E35D M47V V68M A71G)
T-lymphocyte activation …: B1 T-lymphocyte activation … with M47V, A71G, M85L, Q94R
Relative Luciferase Units (RLU), CD80 Conc 5.0 nM (CD28 [1]; Table E24, 5.0 nM): 963 RLU | CD28 MFI at 33.3 nM (CD28 [2]; [4]): 3227 | PD-L1 MFI at 33.3 nM (huPD-L1; [5]): 64919

B7: V22D/E24D/E35D/M47L/V68M (protein)
chain: VIHVTKEVKEVATLSCGHNVSDEDLAQTRIYWQKDKKMVLTMMSGDLNIWPEYKNRTIFDITNNLSIMILALRPSDEGTYECVVLKYEKDAFKREHLAEVTLSVKADFPTPSISDFETPTSNIRRIICSTSGGFPEPHLSWLENGEELNAINTTVSQDPETELYAVSSKLDFNMTTNHSFMCLIKYGHLRVNQTFNWNTTKQEHFPDN
modifications: CD80 v383 ECD
Relative Luciferase Units (RLU), CD80 Cone 5.0 nM (CD28 [1]; Table E13, 5.0 nM): 974 RLU | CD28 MFI at 33.3 nM (CD28 [2]; [3]): 1254 | PD-L1 MFI at 33.3 nM (huPD-L1; Table E11, 33.3 nM): 15418

B8: E35D/M47V/N48KN68M/K89N (protein)
chain: VIHVTKEVKEVATLSCGHNVSVEELAQTRIYWQKDKKMVLTMMSGDVKIWPEYKNRTIFDITNNLSIMILALRPSDEGTYECVVLKYENDAFKREHLAEVTLSVKAD
CD28 MFI at 33.3 nM (CD28 [2]; [6]): 11736 | CD28 Fold change to WT CD80 (CD28 [2]; [7]): 0.65 | CTLA4 MFI at 33.3 nM (huCTLA4; [8]): 807 | CTLA4 Fold change to WT CD80 (huCTLA4; [7]): 0.01 | PD-L1 MFI at 33.3 nM (huPD-L1; Table E4, 33.3 nM): 89775 | PD-L1 Fold change to WT CD80 (huPD-L1; [7]): 7.56 | Ratio of PDL1:CD28 (huPD-L1; [9]): 8

B9: E35D/M47V/N48KN68M/A71G/L85M (protein)
chain: B8 chain with A71G, L85M, N89K
CD28 Fold change to WT CD80 (CD28 [2]; [10]): 9.6 | CD28 MFI at 33.3 nM (CD28 [2]; [3]): 302 | CTLA4 Fold change to WT CD80 (huCTLA4; [10]): 9.5 | CTLA4 MFI at 33.3 nM (huCTLA4; Table E11, 33.3 nM): 16604 | PD-L1 Fold change to WT CD80 (huPD-L1; [10]): 442.1 | PD-L1 MFI at 33.3 nM (huPD-L1; Table E11, 33.3 nM): 22770 | Ratio of PDL1:CD28 (huPD-L1; Table E11, MFI at 33.3 nM): 75.4

B10: L85Q (protein)
chain: B8 chain with D35E, V47M, K48N, M68V, L85Q, N89K
CD28 MFI at 33.3 nM (CD28 [2]; [11]): 35 | CTLA4 MFI at 33.3 nM (huCTLA4; Table E19, 33.3 nM): 3002

B11: E35D/D46V/M47V/V68M/K89N (protein)
chain: B8 chain with D46V, K48N
Relative Luciferase Units (RLU), CD80 Conc 5.0 nM (CD28 [1]; Table E21, CD80 Conc 5.0 nM): 817 RLU | CD28 MFI at 33.3 nM (CD28 [2]; [11]): 2119 | PD-L1 MFI at 33.3 nM (huPD-L1; Table E19, 33.3 nM): 21603

B12: E35D/L85Q/K93I/E95V/L97Q (protein)
chain: B8 chain with V47M, K48N, M68V, L85Q, N89K, K93T, E95V, L97Q
CD28 MFI at 33.3 nM (CD28 [2]; [6]): 400 | CD28 Fold change to WT CD80 (CD28 [2]; [7]): 0.02 | CTLA4 MFI at 33.3 nM (huCTLA4; [8]): 246401 | CTLA4 Fold change to WT CD80 (huCTLA4; [7]): 1.57 | PD-L1 MFI at 33.3 nM (huPD-L1; Table E4, 33.3 nM): 19880 | PD-L1 Fold change to WT CD80 (huPD-L1; [7]): 1.67 | Ratio of PDL1:CD28 (huPD-L1; [9]): 50

B13: N48K/K89N (protein)
chain: B8 chain with D35E, V47M, M68V
CD28 MFI at 33.3 nM (CD28 [2]; [11]): 170 | CTLA4 MFI at 33.3 nM (huCTLA4; Table E19, 33.3 nM): 4370

B14: M47L/L85Q (protein)
chain: B8 chain with D35E, V47L, K48N, M68V, L85Q, N89K
Relative Luciferase Units (RLU), CD80 Conc 5.0 nM (CD28 [1]; Table E21, CD80 Conc 5.0 nM): 416 RLU | CD28 MFI at 33.3 nM (CD28 [2]; [11]): 88.1 | PD-L1 MFI at 33.3 nM (huPD-L1; Table E19, 33.3 nM): 5801

B15: A26E/E35D/V68M/A71G (protein)
chain: B8 chain with A26E, V47M, K48N, A71G, N89K
Relative Luciferase Units (RLU), CD80 Conc 5.0 nM (CD28 [1]; Table E22, CD80 Conc 5.0 nM): 839 RLU | CD28 MFI at 33.3 nM (CD28 [2]; Table E20, Jurkats (CD28), 33.3 nM): 135 | PD-L1 MFI at 33.3 nM (huPD-L1; Table E20, 33.3 nM): 12611
